Results as given in the supplement of paper PMC12042874.
± gives the uncertainty stated by the source.

Experiment: amyloid nucleation score (Sup35N fusion, yeast selection) (log enrichment); library NNK2; higher = more nucleation; inactive = no reads after selection
Procedure, shortened: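 Plasmid inserts were Illumina-sequenced at input and output from psi-negative yeast expressing Sup35N fused to peptides of 20 random codons. The yeast were induced with 100 μM copper sulfate for 24 hours and grown 7 days at 30°C on medium lacking adenine and uracil, and sequences with under 100 input reads were excluded. Nucleation score is the DiMSum log enrichment of output over input reads, centred on the mode score of non-aggregating sequences.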

Substance | amyloid nucleation score
LSYLHG | -0.913 ± 0.63
KIINNSANGNIYVVNRVLTL | 8.174 ± 0.046
SIVFFNRC | 7.562 ± 0.05
SPTNIRP | -0.185 ± 0.47
TMRYMVQMLRFEQSGLGQWV | 4.19 ± 0.076
NWIDVLFKCKC | -0.156 ± 0.62
TGHKECVW | 0.762 ± 0.47
NRIGDIGFSPNMCQAPNDVD | 0.095 ± 0.53
YKVYPWLFIYLLLLDRAD | -1.45 ± 0.73
LCVYNPNVKYVHPCWTASGG | -0.529 ± 0.44
FLNYVGDGIIEI | -0.835 ± 0.48
FLMACPMFIIVYLCRT | inactive
GIHCGR | 3.24 ± 0.06
CYVDFSYLVNKFYWGPRWMP | -0.049 ± 0.5
KFNFS | -0.908 ± 0.44
MQAMRRGQKYKSGRVIYVRG | -0.554 ± 0.63
VLVDTSDRWLMARWLGVPKP | 4.79 ± 0.084
DLYQALSISV | -0.308 ± 0.39
LFQLGASTR | 0.147 ± 0.76
LSTANSNSRAVFIIKMRGLL | inactive
NSIESNSCKWVRNVCTANSG | -0.587 ± 0.76
SLWVMKCDKDTKYADRSFTL | -0.632 ± 1.1
LSYVWYTQIARPGNSGFNLL | 2.12 ± 0.14
GTNHWTVRLIYLVLHLDRDG | 0.583 ± 0.41
MDAYRCWAQMYRTYMLMCLV | 0.039 ± 0.27

Substance | amyloid nucleation score
AEDFVLAEEYI | -0.285 ± 0.76
LYGMF | -0.261 ± 0.63
RPMWLSGAEKKWLSCWCNCM | 6.013 ± 0.046
FRKWNSS | 4.08 ± 0.072
GNEVRGNTMVENPTMSLVMG | 0.712 ± 0.39
LNNIFDLQYWQLWMSRQVKS | 0.809 ± 0.14
VRTWISDSCSVYWSSRLA | 5.06 ± 0.084
MSVPFLWFTYHFSRPVLSVT | 0.389 ± 0.27
TRKILEMVFLLTAVNYNGVP | -1.12 ± 0.26
YQTWDSYVRSTCVYITCPWY | 7.133 ± 0.059
TFLYREVPLRRYR | 0.135 ± 0.63
MTRTFYCFQGRHLDSWDQGE | 0.371 ± 0.8
ILQFKVGKGQGNAQLFKPII | -0.935 ± 0.55
VMTSIVFNRVSWYFLIMFVW | -0.987 ± 0.55
YMKKSMF | -0.095 ± 1.1
LYSMSHCWHVQCWEFDSYVG | -0.174 ± 0.23
RPWVHTGW | 0.277 ± 0.57
SQRNTLEFVLAGYKTTLVIS | -0.549 ± 0.27
IFLDHYS | -0.026 ± 0.35
TDRLRFIYSGGVEFFVPVLL | inactive
MAELLHKYGYKDAVRNIHPY | 0.641 ± 0.62
DVRRLLFLLLGQ | -0.796 ± 0.4
SCRVLIGV | 0.878 ± 0.46
NCSSIF | inactive
YVANGPFCPDFLLLAGWYGV | 0.447 ± 0.53

Substance | amyloid nucleation score
GPMRGC | -0.548 ± 1.1
TTDLYEMLWTFWSINRNSKS | -0.071 ± 0.61
CNFHCPI | 2.63 ± 0.17
VGGLFYLLLMG | -0.865 ± 0.53
STVVLSHRCLLSCE | -0.656 ± 1.1
NTTMWGHVYMHLANMYTEFC | inactive
MRSYRLYLIPFHFLGWLINS | inactive
MLYVVCFCILVFLFHTNRMR | -0.674 ± 0.32
HFDEPFFCCAGMHAH | 6.8 ± 0.056
NILIRASGVRA | inactive
WLLMYPLI | -1.04 ± 0.34
NMPFYRFAKRTWFRNPQSFV | -1.19 ± 1
ATTFKPAHLSRYMWLATYPV | 0.765 ± 0.41
SCSYRFSRSDDNCKTRFIAF | -0.582 ± 1.1
VISNHPETTDTNRVLLYVLG | 0.411 ± 0.53
TLWEGVFKRSWLGVSGSKVE | 0.401 ± 0.23
YSTYRASVGFARRGMPLPIL | 0.015 ± 0.76
TLLKHTSSTSIVYRRHALEI | 1.35 ± 0.29
PCTVHASNRTLGHRVKSCSV | -0.515 ± 1.1
CGNPFGLSTHFNYLRRMPWE | 0.116 ± 0.25
VGYSEMGVADLGHGGW | 1.15 ± 0.31
STPIAEV | 0.6 ± 0.29
SAKNMFDMYNCLDTLVVSWD | -0.095 ± 0.46
AGSARRLGLMPRGSGYALGW | 1.44 ± 0.17
DYSFGMSCLEDIFREHEILG | -0.879 ± 1.1

Substance | amyloid nucleation score
WHCNFMHWVHKR | 6.383 ± 0.06
VMNDLILSKAVLGFELRLWG | 4.23 ± 0.066
VGVVVNFRASGPGFE | 8.288 ± 0.061
LLFLRYVVYFGNLDCLGLYM | -1.44 ± 1
RSLDVLTTVVMRAFNPTRLR | 0.953 ± 0.36
ANGIFAEGGVREDSIH | inactive
NICRM | -0.058 ± 0.53
LKLRSVKSFDFVWMIVAAEV | 0.482 ± 0.26
RADTRFVAMGFGCRNVKPAV | -0.296 ± 0.54
GLYGMGIQMGPRISVSYPAA | 0.536 ± 0.65
LVRMIYTYSVRSDSVSFKSF | -0.132 ± 0.38
DAITCGVHFAKDLNWVYIEV | inactive
AYILAVVCPVVRKIGSQYDE | 1.87 ± 0.15
ESLKINASSEQSRLVTRDTQ | -0.191 ± 0.61
RMGFWSLGSSSYNWYKTCVL | 0.043 ± 0.74
VRCIE | -0.282 ± 0.28
YCLSDKWTLCG | 0.367 ± 0.41
HDKVCTSLRVVDQCLRPGH | 0.608 ± 0.38
PCSLLKNWYIEAYTALQNIG | 0.383 ± 0.74
AVHDGFDRNMAIKGTGGRWW | 3.79 ± 0.098
HMARYKIMSVLEIFHYMNRL | 3.16 ± 0.16
FFRCVLITPD | 0.179 ± 0.53
FRSGCQFLWHERLNNNVTNA | 1.54 ± 0.093
TDLCCRLSIQLINHVYHSCL | 0.351 ± 0.74
GICRKNDRTSDQRYFVKSL | -0.575 ± 0.53

Substance | amyloid nucleation score
YFSCITILGFGSSNSWRRIM | -1.02 ± 0.78
YCCPYYRKVLF | -0.559 ± 0.61
RYWKFA | 0.744 ± 0.74
LTCSKSPIWWAIIFVGYFTN | 0.022 ± 0.62
SLTLLGLNR | -0.22 ± 0.22
YVPPQWRIVDRNVSY | 0.012 ± 1
VNAHLWYIFRVWDVKDRVVD | -0.315 ± 0.74
TFCSPR | 0.49 ± 0.5
GVCMSLEVKNKKLSNEHNS | 5.18 ± 0.092
REVTNLYVVGGSDCTLIGGM | 3.75 ± 0.097
YLEMMYVAFNFFNGIYCLFY | inactive
MLFSNVLLCKLCIFA | 6.96 ± 0.055
VIKTFVILDVYAGLSCQC | 1.25 ± 0.34
NFFAHRVCHYFVIRCGLIT | inactive
SLTLHLSEWGAISPN | -0.347 ± 1
CVVQHSRSFVRPLLSTLQAC | 0.453 ± 0.23
MSIEKCICLICSINMEVVGF | 6.821 ± 0.059
YSASKFTWPCIKTSKCGALC | -1.09 ± 0.63
RLHRTILHVSRTGQFGAHQC | 0.989 ± 0.35
RKLRVNWERCFHVSEAGLKV | 0.057 ± 1.1
FASRLNWVEIHTMYGGLS | 0.209 ± 0.32
WGLGCMSQSTLHGSLISSVR | -0.5 ± 0.44
LLCRTCFRVQYAYDNLVMFL | inactive
VLYFLYGKWQKTQRSNRYLQ | -0.674 ± 0.76
NYTWGEIYGH | -1.2 ± 0.79

Substance | amyloid nucleation score
MRYSPWQGTHILWVLNTTSY | 1.82 ± 0.32
GVTSRYTDSVSCGYPDSMML | 0.594 ± 0.45
RLTFSSIVTGGLQFKTLL | 2.75 ± 0.1
MFSIYLLSCPLYISMNWSCR | 0.183 ± 1
PRRVDRW | 0.339 ± 0.2
IFRIWRTRGRRSRFVSIEIG | -0.802 ± 0.41
YDCLCFFPWCRLFNSRKSMA | 0.34 ± 0.14
KHIDVRSNVWTRPHSKWLWS | 0.403 ± 0.2
HESVHTTHFMAFYC | 0.124 ± 0.61
FSRLNSWILRSHGNKVKALT | 0.552 ± 0.66
GNMKCQVTLILMSTSDIREL | 7.039 ± 0.041
MLGHSWHF | inactive
YIWNCDSDSIVPLLL | inactive
SVSYTNVLYHIKVDEFFNEC | 1.3 ± 0.25
ISVYLSRSIFI | -0.326 ± 1
KTGYINCSIMDYMV | inactive
LCGFTIPSNVSLGRR | 4 ± 0.11
LIFRVFFALTVGIRRIMHML | 5.83 ± 0.059
QEVELGMGPKRGETVKEVDL | 0.098 ± 0.22
CTQVMTERV | -0.091 ± 0.32
CVFVPIKLGGDGLTVYLKCI | -0.996 ± 0.45
RIFMWAYLAYCDNISEVRRR | -0.554 ± 1
NFSAFGRFNLNLWMNNITRL | 4.05 ± 0.077
PTGNQLKKCVDKCGGRSGGE | inactive
TMSVDCWLCNLRMEMFLELY | -1.54 ± 0.75

Substance | amyloid nucleation score
AKVCFFKHESPMGQVGAY | -1.2 ± 0.54
FTIFNKLCCVNYWVCILCYR | 5.144 ± 0.049
LNRFGSSNSLITKFC | -1.58 ± 1
RSLVLYSGRKVLS | -0.516 ± 0.27
NYLRYLLMDSHMRLMDRWKQ | 4.87 ± 0.069
ETPIIRDQYKLGYNLRTSVL | inactive
KLDWSNRLCSLNFECSCQLL | 3.78 ± 0.094
ILLVSATHYSQLNKGRPNDL | 1.43 ± 0.35
KRLTPS | 0.155 ± 1.1
QIVWLHCLFRRFSNGATSDD | -0.122 ± 0.23
GSKALVSGGFVSGVKYGKAI | inactive
RRSSD | 1.2 ± 0.3
CKLHRVYAIFFSMD | inactive
FDSSSESLGKGKCY | 0.225 ± 0.49
AALHNYAVSFCFMSPMKQKT | -0.542 ± 0.76
YMYPWGP | 0.693 ± 0.28
FKCPFSNFFAMDGYY | -0.801 ± 0.55
APFCSIVTTDVP | -0.363 ± 1.1
LAWITKSMFLL | 0.672 ± 0.56
WFKVH | 0.26 ± 0.8
VGGYLAICNGLSSLCLDPG | -0.59 ± 1.1
NLILYPRHDNYQSS | inactive
